How the values were obtained:
cynomolgus monkey ENPP3 = biological target: T1, cynomolgus monkey ENPP3 (cynomolgus monkey, UniProt A0A2K5TKP4 46-874); assay: binding affinity to cyno ENPP3; method not stated
T1 construct: also called cyno ENPP3
T1 sequence: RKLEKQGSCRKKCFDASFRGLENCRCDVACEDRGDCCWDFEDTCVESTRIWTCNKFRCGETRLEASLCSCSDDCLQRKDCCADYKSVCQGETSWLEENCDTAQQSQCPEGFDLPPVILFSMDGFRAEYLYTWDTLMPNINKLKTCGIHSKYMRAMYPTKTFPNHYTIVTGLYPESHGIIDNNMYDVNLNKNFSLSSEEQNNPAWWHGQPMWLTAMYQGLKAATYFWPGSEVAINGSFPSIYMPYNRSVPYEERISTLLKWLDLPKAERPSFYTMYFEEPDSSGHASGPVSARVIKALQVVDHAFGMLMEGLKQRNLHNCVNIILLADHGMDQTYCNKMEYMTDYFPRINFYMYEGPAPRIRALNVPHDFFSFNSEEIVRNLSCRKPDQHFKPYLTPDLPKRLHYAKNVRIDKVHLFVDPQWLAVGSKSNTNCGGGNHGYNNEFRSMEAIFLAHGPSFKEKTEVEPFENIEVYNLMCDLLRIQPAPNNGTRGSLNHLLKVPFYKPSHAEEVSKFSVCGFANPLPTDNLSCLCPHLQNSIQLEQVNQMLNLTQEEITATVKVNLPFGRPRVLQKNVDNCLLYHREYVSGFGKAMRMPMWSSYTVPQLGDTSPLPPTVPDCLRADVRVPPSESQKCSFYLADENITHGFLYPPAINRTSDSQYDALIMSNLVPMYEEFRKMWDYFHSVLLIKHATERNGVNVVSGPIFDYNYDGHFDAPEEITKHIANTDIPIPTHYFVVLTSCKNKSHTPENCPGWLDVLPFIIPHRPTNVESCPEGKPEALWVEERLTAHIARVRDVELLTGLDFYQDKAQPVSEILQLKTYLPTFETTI

human ENPP3 = biological target: T2, human ENPP3 (human, UniProt O14638 46-875, limits assumed); assay: binding affinity to human ENPP3; method not stated
T2 construct: neither the construct nor the method is stated; also called ectonucleotide pyrophosphatase/phosphodiesterase family member 3
T2 sequence (looked up): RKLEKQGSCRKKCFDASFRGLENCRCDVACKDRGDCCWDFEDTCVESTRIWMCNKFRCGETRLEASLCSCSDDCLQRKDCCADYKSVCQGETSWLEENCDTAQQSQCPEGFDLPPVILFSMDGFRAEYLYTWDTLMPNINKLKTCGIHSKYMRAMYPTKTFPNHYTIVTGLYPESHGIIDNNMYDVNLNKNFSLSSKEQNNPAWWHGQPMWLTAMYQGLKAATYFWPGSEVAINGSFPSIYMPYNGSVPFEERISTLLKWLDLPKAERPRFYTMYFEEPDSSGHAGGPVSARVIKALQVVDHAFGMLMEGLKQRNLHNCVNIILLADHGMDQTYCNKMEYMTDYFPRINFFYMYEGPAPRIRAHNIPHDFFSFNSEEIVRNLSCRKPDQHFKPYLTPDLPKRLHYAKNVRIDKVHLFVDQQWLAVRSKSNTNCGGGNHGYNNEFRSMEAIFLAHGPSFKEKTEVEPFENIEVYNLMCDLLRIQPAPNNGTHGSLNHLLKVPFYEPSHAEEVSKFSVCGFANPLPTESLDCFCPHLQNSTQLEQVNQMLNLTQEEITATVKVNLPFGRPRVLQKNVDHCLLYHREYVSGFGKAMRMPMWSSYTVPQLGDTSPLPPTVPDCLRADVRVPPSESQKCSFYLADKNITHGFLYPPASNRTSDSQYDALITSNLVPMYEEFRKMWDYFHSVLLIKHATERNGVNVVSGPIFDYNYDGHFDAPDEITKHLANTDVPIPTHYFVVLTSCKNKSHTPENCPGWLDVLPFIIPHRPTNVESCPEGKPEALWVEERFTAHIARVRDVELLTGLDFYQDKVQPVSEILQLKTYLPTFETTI

Kd (cynomolgus monkey ENPP3): 9.58 nM
Kd (human ENPP3): 0.193 nM
B1: NPP3B101 (antibody, V domains shown)
VH: QVQLQESGPGLVKTSETLSLTCTVSGGSISSHYWSWIRQPPGKGLEWIGNIFYSGSTNYNPSLKSRVTMSVDTSKNHFSLKLISVTTADTAIYYCARHDHVWFDPWGQGTLVTVSS
VL: EIVLTQSPGTLSVFPGERATLSCRASQSVSRNLVWYQQKPGQAPRLLIYGASTRATGIPDRFSGSGSGTEFTLTISSLQSEDFAVYYCQQYNNWPPWTFGQGTKVEIK
notes: mAb from Ablexis Kappa mice

— patent US20250163182A1 (Janssen / Centocor, published 2025)
